Measurements as given in the nanobody polyreactivity screen of Harvey et al. (2022).

Assay: yeast display, Sf9 membrane polyspecificity reagent, FACS + sequencing; frameworks hold sequencing errors
Outline: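 Nanobodies from a synthetic yeast display library (Saccharomyces cerevisiae BJ5465), induced 36–48 hours with galactose, were stained 1 hour at 4 °C with 10% biotinylated, detergent-solubilized Sf9 membrane reagent, enriched on streptavidin microbeads, then FACS-sorted. Anti-HA (expression) and streptavidin (reagent binding) fluorescence set low and high (top ~1%) gates. Polyreactivity labels come from the gate of origin. Genes were colony-PCR amplified, MiSeq 2 × 250 sequenced and filtered by CDR length.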

Q: Which “polyreactivity (PSR sort gate)” value does the source give for “QVQLVESGGGLVQAGGSHRLSCAASGRTFAPNAMGWYRQAPGKERELVAAISSVGITYYADSVNGRFTISRDNAKNTVYLQMNSLNPEDTAVYYCAKVRKTRSITDGYGYWGQGTQVTVSS” here?
A: Its value is “low polyreactivity”.

Q: For “QVQLVESGGGLVQAGGSLRLSCAASGSIFYPYAMGWYRQAPGKERELVATISSGVNTNYADSVKGRFTISRDNAKNTVYLQMNSLKPVDTAVYYCAARFRHSFRRGGGYNYDYWGQGTQVTVSS”, which “polyreactivity (PSR sort gate)” value is on record?
A: Its value is “high polyreactivity”.

Q: Which “polyreactivity (PSR sort gate)” value does the source give for “QVQLVESGGGLVQAGGSLRLSCAASGFIVVFNAMGWYRQAPGKERELVAAINGGDITNYADSVKGRFTISRDNAKNTVYLQMNSLKPEDTAVYYCAADGEDSMWTGYDYDYWGQGTQVTVSS” here?
A: The value was “low polyreactivity”.

Q: For “HVQLVESGGGLVQAGGSLRLSCAASGFIGIYALGWYRQAPGKERELVAAITTSGGRTYYADSVKGRFTISRDNAKNTVYLQMNSLKPEDTAVYYCAAPWRLFSLYDYWGQGTQVTVSS”, which “polyreactivity (PSR sort gate)” value is on record?
A: The value was “low polyreactivity”.

Q: Which “polyreactivity (PSR sort gate)” value does the source give for “QVQLVESGGGLVQAGGSLRLSCAASGSIFNPNAMGWYRQAPGKEREVVAAIDSGGTTDYADSVKGRFTISRDNAKNTVYLQINSLKPEDTAVYYCNADRTVTSSSFTDYDYWGQGTQVTVSS” here?
A: Its value is “high polyreactivity”.

Q: With “QVQLVESGGGLVQAGGSLRLSCAASGSTFWHNAMGWYRQAPGKERELVAAISYSGGNTNYADSVKGRFTISRDNAKNTVYLQMNSLKPEDTAVYYCNAPDVFPQAIYDYWGQGTQVTVSS” as the sequence, how does the “polyreactivity (PSR sort gate)” value read?
A: Its value is “high polyreactivity”.

Q: Which “polyreactivity (PSR sort gate)” value does the source give for “QVQLVESGGGLVQAGGSLRLSCAASGRTFHKNAMGWYRQAPGQERELVAAISGSGGSTYYADSVKGRFTISRDNAKNTVYLQMNSLKPEDTAVYYCAADSSYYEEDYWGQGNQVTVSS” here?
A: Its value is “high polyreactivity”.

Q: Which “polyreactivity (PSR sort gate)” value does the source give for “QVQLVESGGGLVQAGGSLRLTCAASGLSSLRMLWDGIDRRLGKKGSWLPLLTSGGDSTNYADSVKGRFTISRDTAKNTVYLQIISLKPEDTAVYYCAADLDYPYGYWGQGTQVTVSS” here?
A: Its value is “low polyreactivity”.

Q: With “QVQLGESGGGLVQAGGSLRLSCAASGYTFRPYAMGGYRQAPGKESELVAAISSGDSTNYADSVKGRFTISRDNAKNTVYLQMNSLNPEDTAVYYCAARRVGGGFYTWRNPAYEYWGQGTQVTVSS” as the sequence, how does the “polyreactivity (PSR sort gate)” value read?
A: Its value is “high polyreactivity”.

Q: With “QVQLVESGGGLVQAGGSLRLSCAASGRTLFPNVMGWYRQAPGKERELVAAIRGTGGSTYADSVKGRVTISRDNAKNTVYLQMNSLKPEDTAVYYCAAGYPVTRRTIRFDYWGQGTQVTVSS” as the sequence, how does the “polyreactivity (PSR sort gate)” value read?
A: Its value is “high polyreactivity”.

Q: For “QFQLVESGGGLVQAGGSLRLSCAASGRTYRYTMGWSRHAPGKERELVAAISRSGGSTYYADSVKGRFTISRDNAKTTVYLQMNSLIPEDTAVYYCAKVIYRYNETYDYWGQGTQVTVSS”, which “polyreactivity (PSR sort gate)” value is on record?
A: The value was “high polyreactivity”.

Q: With “QVQLVESGGCLVQAGGSLRLSCDASGIIFRGNAMGWYRHAPGTERELVAAISSAGSTNYSDSVKGRFTISRDNAKNTVYLQMNSLKPEDTAVYYCAKGSIKYHVTLRGRGYYWGQGTQVTVSS” as the sequence, how does the “polyreactivity (PSR sort gate)” value read?
A: The value was “low polyreactivity”.

Q: For “QVQLVESGGGLVQAGGSLRLSCAAAGSTFSSYAMVWYRQAPGKERELVAAISTSGGRTYYADSVKGRFTISRDNAKNAVFLQMNSLKPEDTAVYYCAKKGICYVRYYYWGQGTLVTVSS”, which “polyreactivity (PSR sort gate)” value is on record?
A: Its value is “high polyreactivity”.

Q: For “QVQLVESGGGLVQAGGSLRLTCAASGFTFSQYVMGWYRQAPGKERELVAAISYRGGSTYYADSVKGRFTISRDKAKNTVYLQLNSLKPEDTAVYYCAAVAYSWHNRYDYWGQGTQVTVSS”, which “polyreactivity (PSR sort gate)” value is on record?
A: Its value is “high polyreactivity”.

Q: With “QVQLQDSGGVMVLACGSLRLSCAESGYISWSFTMGWYRKAPGKEREFVAGITYGGITYYADSVKGRFTISRDNAKNSVYLQMNRLKPEDTAVYYCAAPQSYPYVYVYWGHGTQVTVSS” as the sequence, how does the “polyreactivity (PSR sort gate)” value read?
A: The value was “high polyreactivity”.

Q: With “QVQLVESGGGLVQAGGSLRLSCAASGYTFVDNAMGWYRQAPGKERELVAAINWDGASTYADSVKGRFTISRDNAKNTVYLQMNSLKPEDTAVYYCTASGKDIFNYVYQGYDYWGQGTQVTVSS” as the sequence, how does the “polyreactivity (PSR sort gate)” value read?
A: Its value is “low polyreactivity”.

Q: Which “polyreactivity (PSR sort gate)” value does the source give for “QVQIVESGGGLVQAGGSLRLSCAASGRTFNAYAMGWYRPAPGKERELVAAISGNGGSTYYADSVKGRFTISRDNAKNTVYLQMNSLKPEDTAVYYCYKVQRSLLGYNSWGQGTEVTVSS” here?
A: Its value is “high polyreactivity”.

Q: For “QLQLVESGGGLVQAGGSLRLSCAASGSIFNRYAMGSYRQAPGKERELVAAITRSAARTYYADSVKGRFTISRDNAKTTVYLQMNRLKPEDTAVYYCKAATTPYGYSYYYLGQGTQVTVSS”, which “polyreactivity (PSR sort gate)” value is on record?
A: The value was “high polyreactivity”.

Q: Which “polyreactivity (PSR sort gate)” value does the source give for “QVQLVESGGGLVQAGGSLRLSCAASGSTFSIYAMGGDRQAPGKERELVAAITRRSGSTYYADSVKGRFTISRDNAKNTVSLQMNSLKPEDTAVYYCAADTWRTDYTSSYYKNRDSWGQGTQVTVSS” here?
A: Its value is “high polyreactivity”.

Q: With “QVQLVESGGGLVQAGVSLLISCAASGSTFLLNTMGWYIQAPGKERELVAAISSITGDTYYADSVKVRFTISRDNAKNNDYLQMNSLKPEDTAVYYCAARYYLSSQGWTYDYWGQGTQVTVSS” as the sequence, how does the “polyreactivity (PSR sort gate)” value read?
A: The value was “low polyreactivity”.

Q: Which “polyreactivity (PSR sort gate)” value does the source give for “QVHLVESGGGLVQAGGSLRLSCAASGYVMGWYRQAPGKERELVAAITRGTSTYYADSVKGRFTISRDNAKNTVYLQMNSLKPEDTAVYYCAARTTSGEWPPGNIGTYLYDYWGQGTQVTVSS” here?
A: Its value is “low polyreactivity”.

Q: Which “polyreactivity (PSR sort gate)” value does the source give for “QVQLVESGGGLVQAGGSLRLSCAPSGFTFRYYAMGWYRQAPGKERELVAAISWSVGSTYYADSVKGRFTISRDNAKNTVYLQMNSLKPEDTAVYYCNAAWPGYISNRLGYDYWGQGTQVTVSS” here?
A: The value was “high polyreactivity”.

Q: With “QVQLVESGGGLVQAGGSLRLSCAASGSIFAVYAMGWYRQAPGKERELVATITGIDTGTYYADSVKGRFTISRDNAKNTVYLQMNSLKPEDTAVYYCAAVWRYRHLRFYYWGQGTQVTVSS” as the sequence, how does the “polyreactivity (PSR sort gate)” value read?
A: The value was “high polyreactivity”.

Q: With “QVQLVESGGGLVQAGGSLRLSCAASGSIFVPYAMGWYRQAPGKERELVAAISSSTASTYYADSVKGRFTISRDNAKNTVYLQMNRLKPEETAVYYFNAEQWDYGVRVAHYDYWGQGTQVTVSS” as the sequence, how does the “polyreactivity (PSR sort gate)” value read?
A: Its value is “low polyreactivity”.

Q: With “QVQLVESGGGLVQAGGSLRLSCAASGSTFYYGMGWYRQAPGKERELVAAISSRGGTTYYADSVKGRFTISRDNAKNTVYLQMNSLKPEDTAVYYCAAPVPYYVPRRNEGDYWGQGTQVTVSS” as the sequence, how does the “polyreactivity (PSR sort gate)” value read?
A: The value was “low polyreactivity”.

Q: With “QVQLVESGGGLVQAGGSLRLSCAASGSIFRVYAMGWYRQAPGKERELVAAISTRGGSTYYADSVKGRFTISRDNAKNTVYLQMNSLNPEDTAVYYCAKRWPQYPDYKPMYYWGQGTQVTVSS” as the sequence, how does the “polyreactivity (PSR sort gate)” value read?
A: The value was “high polyreactivity”.

Q: Which “polyreactivity (PSR sort gate)” value does the source give for “QVQLVESGGGLVQAGGSLRLSCAASGSTFPHYAMGWYRQAPGKERELVAAISWSGSSTYYADSVKGRFTISRDNAKNTVYLQMNSLKPEDTAVYYCNKLPRRAPQFTYDYWGQGTQVTVSS” here?
A: The value was “high polyreactivity”.

Q: With “QVQHVESGGGLVQAGGSLRLSCAASGRIFYLNAMGWYRQAPGKERELVAAISRVGRTNYADSVKGRFTISRDNAKNTVYLQMNSLKPEDTAVYYCAAVYYSVNGRHGYWGQGTQVTVSS” as the sequence, how does the “polyreactivity (PSR sort gate)” value read?
A: Its value is “high polyreactivity”.

Q: Which “polyreactivity (PSR sort gate)” value does the source give for “QVQLVDSGGGLVQAGGSLRLSCAASASTFEYYTMGWYRHAPGKERQLVASIRSSGTSTYYADCVKGRFTISRDNAKNTVYLQMNSLKPEDTAVSYWAATVLSIYVSSYGFWGQGTQVTVSS” here?
A: The value was “high polyreactivity”.

Q: With “QGQLVESGGGLVQAGGSLRLSCAASGSIFVQNAMGWYRQAPGKEREFVAVINSGDSTNYADSVKGRFTISRDIAKNTVYLQMNSLKADDTAVYYCAVDDVSYYYLRAYNYELSWYGSGLDYWGQGTQVTVSS” as the sequence, how does the “polyreactivity (PSR sort gate)” value read?
A: Its value is “low polyreactivity”.

Q: For “QVHLVESGGGLVQAGGSLRLSCAASGRTFRYYAMGWYRPAPGKERELVAAISSSGDRTYYADSVKGRFTISRDNAKNTVYLQMNSLKPEDTSVYYCAADRGARGDYYWGQGTQVTVSS”, which “polyreactivity (PSR sort gate)” value is on record?
A: The value was “high polyreactivity”.

Q: With “QVQLVESGGGLVQAGGSLRLSCAASGRIFFTYAMGWYRQAPGKERELVAAIDRSGTSTYYADSVKGRFTISRDNAKNTVYLQMNRLKPEDTAVYNCAARPNPNYDEMDYWGQGTQVNVSS” as the sequence, how does the “polyreactivity (PSR sort gate)” value read?
A: The value was “low polyreactivity”.

Q: For “QVQLVESGVGLVQAGGSLRLSCAASGFTFARYAMGRYRQAPGKEREFVAAISLSTTSTYYADSVKGRFTISRDYANNNVFLQMNSLKPEDTAVYYCATDIVGPHFDYWGQGTQVSVSS”, which “polyreactivity (PSR sort gate)” value is on record?
A: Its value is “low polyreactivity”.

Q: With “QVQLVESGGGLVKAGGSLRLSCAASGRTFLRNAMGWYRPAPGKERELVATITRGGSTYYADSVKGRFTISRDNAKNTVYLQMNSLKPEDTAVYYCAKDITGGFRRPDYGYWGQGTQVTVSS” as the sequence, how does the “polyreactivity (PSR sort gate)” value read?
A: The value was “low polyreactivity”.

Q: Which “polyreactivity (PSR sort gate)” value does the source give for “QVQLVESGGGLVQAGGSLRLSCAASGSIFDPYAMGWYRQAPGKERELVAAISGSGGSTYYADSVKGRFTISRDNAKNTVYLQMNSLKPEDTALYFCAAADAWWGRRYKYYHWGQGPQVTVSS” here?
A: The value was “low polyreactivity”.

Q: For “QVQLVESGGGLVQAGGSLRLSCAASGSIVTANAMAWYRPAPGKERELVAAITTSGTSTYYADSVKGRFTLSRDNAKNTVYLQMNSLKPEDTSVYYCNADKFYRAGSELDYWGQGTQVTVSS”, which “polyreactivity (PSR sort gate)” value is on record?
A: Its value is “high polyreactivity”.

Q: For “QVQLVESGGGLVQAGGSLRLSCAASGFTFAAYAMGWYRQAPGKESELVAAITSRDGTTYYADSVKGRFTISRNNAKNTVYLQMNSLKPEDTAVYYCAKDHFTWGVSEDDYWRQGTQVTVSS”, which “polyreactivity (PSR sort gate)” value is on record?
A: Its value is “low polyreactivity”.

Q: Which “polyreactivity (PSR sort gate)” value does the source give for “QVQLVESGGGLVQAGGSLSLSCAASGSTFARYAMGWYRQAPGKERELVAAISITGSTYYADSVKGRFTISRDNAKNTVYLQMKSLKPEDTAVYYCNVKSKYRYGYWGQGTQVTVSS” here?
A: The value was “high polyreactivity”.

Q: For “QVQLVESGGGLVQAGGSLRLSCAASGRTFRYYAMGWYRQAPGKERELVASISRRGGSTHYADSVKVRFTISRDNAKNTVYLQMNSLKPEDTAVYYCAAYGYYTKVTKYDYWGQGTQVTVSS”, which “polyreactivity (PSR sort gate)” value is on record?
A: Its value is “high polyreactivity”.

Q: For “QVQLVESGGGLVQAGGSLRLSCAASGSTFDVYAMGWYRQAPGKERELVAAIRSSGGSTFYADSVKGRFTISRDNAKNIVYLQMNSLKPEDTAVYYCAARSFVVSGYNKYYEYGYWGQGTQVTVSS”, which “polyreactivity (PSR sort gate)” value is on record?
A: The value was “low polyreactivity”.
